Our source for the abrogation of intracellular p24 expression, inhibition of CD4 downregulation (flow cytometry of MDC1/SEB-activated CD4+ T cells) and reduction in HIV-1 RNA content in the day 7 co-culture supernatants measured by qRT-PCR values is patent publication US20220249653A1.

This experiment addresses CD40L (human) (UniProt P29965). In words: cell-based or functional assay.
UniProt P29965, sequence (P29965 whole entry): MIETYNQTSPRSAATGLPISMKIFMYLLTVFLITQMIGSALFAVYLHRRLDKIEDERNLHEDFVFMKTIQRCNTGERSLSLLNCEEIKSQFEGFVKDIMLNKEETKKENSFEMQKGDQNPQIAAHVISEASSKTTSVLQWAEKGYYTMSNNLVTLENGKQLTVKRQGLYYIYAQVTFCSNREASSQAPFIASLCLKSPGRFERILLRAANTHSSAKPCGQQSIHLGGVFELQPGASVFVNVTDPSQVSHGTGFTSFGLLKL

The substance “CD40L blocking antibody (clone MK13A4; Enzo Life Sciences Cat #ALX-805-037-C100)” had an abrogation of intracellular p24 expression of 90.8%, an inhibition of CD4 downregulation (flow cytometry of MDC1/SEB-activated CD4+ T cells) of 87.7% and a reduction in HIV-1 RNA content in the day 7 co-culture supernatants measured by qRT-PCR of 94.1%.
